This passage reports Kd, koff and kon results from PMC3307134.

Test [1] addresses fibrin (β15-66)2 15-66 (Homo sapiens) (UniProt P02675). Description: SPR. To be noted: cited from earlier work.
The target in test [2] is recombinant dimeric (β15-66)2 fragment. Description: ELISA. Background: An ELISA detects its analyte on a solid surface through an enzyme-linked reagent.
Test [3] concerns the target VE-cad(3)His fragment (human). Put plainly: SPR. On the technique in general: Surface plasmon resonance follows binding to a sensor surface in real time, without labels.
In test [4] the target is VE-cad(3)His fragment (human). Put plainly: SPR. The source holds these as a separate data set.
Test [5] has as its target VE-cad(1-5) fragment (human). Put plainly: SPR.
Test [6] has as its target VE-cad(3)His fragment (human). Put plainly: SPR. This is another data set of the same source.
Test [7] has as its target VE-cad(1-5) fragment (human). Put plainly: SPR. The source holds these as a separate data set.

Like-named read-outs stand apart in the source and are kept apart here.

Chain of fibrin (β15-66)2 15-66 (Homo sapiens) (P02675 15-66): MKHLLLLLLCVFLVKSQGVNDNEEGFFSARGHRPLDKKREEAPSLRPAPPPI
Chain of VE-cadherin VE-cad(1-4)His EC1-4 (P33151 48-477): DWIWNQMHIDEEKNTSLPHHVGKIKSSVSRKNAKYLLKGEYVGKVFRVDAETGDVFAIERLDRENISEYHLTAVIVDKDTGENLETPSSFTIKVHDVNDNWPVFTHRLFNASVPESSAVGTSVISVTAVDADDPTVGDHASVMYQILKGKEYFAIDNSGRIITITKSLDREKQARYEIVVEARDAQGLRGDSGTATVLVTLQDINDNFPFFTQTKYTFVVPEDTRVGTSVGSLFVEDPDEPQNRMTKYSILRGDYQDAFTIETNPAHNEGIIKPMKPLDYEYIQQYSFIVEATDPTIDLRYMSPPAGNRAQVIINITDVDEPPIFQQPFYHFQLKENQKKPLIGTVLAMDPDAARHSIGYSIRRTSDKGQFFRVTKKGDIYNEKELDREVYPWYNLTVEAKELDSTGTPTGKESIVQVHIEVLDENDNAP

The term Kd denotes a measure of binding affinity in units of concentration. Consider “VE-cadherin VE-cad(1-4)His EC1-4 (from UniProt P33151)”, for which the Kd in test [1] is 0.08 µM.

For “VE-cad(2-4) fragment (domain or fragment)”, in test [2], the Kd amounted to 0.032 µM.

Usually koff stands for a measure of how fast the partners let go of each other. High values mean fast dissociation, low ones slow dissociation. For orientation: kon means a measure of how fast the partners come together. Low values mean slow association, high ones fast association. On to “recombinant dimeric (β15-66)2 fragment (domain or fragment)”, for which the Kd came to 0.089 µM in test [3]; 0.09 µM in test [4]; 0.082 µM in test [5]; 0.091 µM in test [6]; 0.0767 µM in test [7]. This substance registered a koff in test [6] of 0.0172 s⁻¹. Moreover, the kon turned out to be 189000 M⁻¹ s⁻¹ in test [6] and 678000 M⁻¹ s⁻¹ in test [7].

On to “VE-cad(2-3) fragment (domain or fragment)”, for which the Kd in test [2] is 0.027 µM.
